Tested on: Escherichia coli TOP10
Assay: shrunken log2 fold change of peptide-encoding DNA abundance (4.5 h post-induction vs induction); higher = less antimicrobial activity (less host growth inhibition)
Settings: time post-induction: 4.5 h; library: site-saturation at positions 5, 18, 19, 20
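Also: peptides expressed intracellularly from a pBAD plasmid library in pooled LB shake-flask culture, induced with 0.3% L-arabinose, DNA abundance read by NGS, three biological replicates, DESeq2 with apeglm shrinkage.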

| Sequence | shrunken log2 fold change |
| --- | --- |
| RRIRVRPPRLPRPRPRPKRCPRP | -0.0118 |
| RRIRVRPPRLPRPRPRPKRDPRP | 0.292 |
| RRIRVRPPRLPRPRPRPKRIPRP | -0.114 |
| RRIRVRPPRLPRPRPRPKRMPRP | 0.117 |
| RRIRVRPPRLPRPRPRPKRQPRP | 0.0464 |
| RRIRVRPPRLPRPRPRPKTIPRP | -0.26 |
| RRIRVRPPRLPRPRPRPKTRPRP | 0.63 |
| RRIRVRPPRLPRPRPRPLCNPRP | -0.139 |
| RRIRVRPPRLPRPRPRPLCTPRP | -0.0347 |
| RRIRVRPPRLPRPRPRPLDQPRP | 0.0826 |
| RRIRVRPPRLPRPRPRPLELPRP | -0.103 |
| RRIRVRPPRLPRPRPRPLFDPRP | -0.172 |
| RRIRVRPPRLPRPRPRPLFPPRP | 0.0958 |
| RRIRVRPPRLPRPRPRPLFRPRP | -0.134 |
| RRIRVRPPRLPRPRPRPLGAPRP | 0.352 |
| RRIRVRPPRLPRPRPRPLGDPRP | -0.125 |
| RRIRVRPPRLPRPRPRPLHDPRP | -0.41 |
| RRIRVRPPRLPRPRPRPLHMPRP | -0.17 |
| RRIRVRPPRLPRPRPRPLIWPRP | -0.0254 |
| RRIRVRPPRLPRPRPRPLIYPRP | -0.632 |
| RRIRVRPPRLPRPRPRPLKKPRP | 0.181 |
| RRIRVRPPRLPRPRPRPLMVPRP | -0.443 |

| Sequence | shrunken log2 fold change |
| --- | --- |
| RRIRVRPPRLPRPRPRPLNMPRP | -1.14 |
| RRIRVRPPRLPRPRPRPLNSPRP | -0.298 |
| RRIRVRPPRLPRPRPRPLNTPRP | -0.224 |
| RRIRVRPPRLPRPRPRPLPHPRP | 0.0915 |
| RRIRVRPPRLPRPRPRPLPIPRP | -0.398 |
| RRIRVRPPRLPRPRPRPLPPPRP | 0.418 |
| RRIRVRPPRLPRPRPRPLPTPRP | 0.184 |
| RRIRVRPPRLPRPRPRPLRPPRP | 0.97 |
| RRIRVRPPRLPRPRPRPLSSPRP | 0.0511 |
| RRIRVRPPRLPRPRPRPLTGPRP | -0.396 |
| RRIRVRPPRLPRPRPRPLTNPRP | -0.447 |
| RRIRVRPPRLPRPRPRPLVEPRP | -0.125 |
| RRIRVRPPRLPRPRPRPLVMPRP | -0.902 |
| RRIRVRPPRLPRPRPRPLWAPRP | 0.081 |
| RRIRVRPPRLPRPRPRPLWHPRP | -0.0301 |
| RRIRVRPPRLPRPRPRPLWWPRP | 0.855 |
| RRIRVRPPRLPRPRPRPLYGPRP | -0.426 |
| RRIRVRPPRLPRPRPRPLYWPRP | -0.329 |
| RRIRVRPPRLPRPRPRPMADPRP | -0.0473 |
| RRIRVRPPRLPRPRPRPMAFPRP | -0.00965 |
| RRIRVRPPRLPRPRPRPMCKPRP | -0.508 |
| RRIRVRPPRLPRPRPRPMCQPRP | -0.0733 |

| Sequence | shrunken log2 fold change |
| --- | --- |
| RRIRVRPPRLPRPRPRPMDLPRP | 0.156 |
| RRIRVRPPRLPRPRPRPMEAPRP | 0.0665 |
| RRIRVRPPRLPRPRPRPMFCPRP | -0.0375 |
| RRIRVRPPRLPRPRPRPMFIPRP | -0.384 |
| RRIRVRPPRLPRPRPRPMFRPRP | -0.048 |
| RRIRVRPPRLPRPRPRPMGIPRP | 0.134 |
| RRIRVRPPRLPRPRPRPMGSPRP | -0.000992 |
| RRIRVRPPRLPRPRPRPMGTPRP | 0.113 |
| RRIRVRPPRLPRPRPRPMHNPRP | -0.268 |
| RRIRVRPPRLPRPRPRPMIIPRP | -1.25 |
| RRIRVRPPRLPRPRPRPMMGPRP | 0.00748 |
| RRIRVRPPRLPRPRPRPMMNPRP | -0.28 |
| RRIRVRPPRLPRPRPRPMMRPRP | 0.837 |
| RRIRVRPPRLPRPRPRPMNAPRP | 0.154 |
| RRIRVRPPRLPRPRPRPMNRPRP | -0.182 |
| RRIRVRPPRLPRPRPRPMPSPRP | 0.333 |
| RRIRVRPPRLPRPRPRPMSFPRP | -0.157 |
| RRIRVRPPRLPRPRPRPMSIPRP | -0.306 |
| RRIRVRPPRLPRPRPRPMYDPRP | -0.0887 |
| RRIRVRPPRLPRPRPRPMYQPRP | -0.342 |
| RRIRVRPPRLPRPRPRPMYRPRP | 0.0262 |
| RRIRVRPPRLPRPRPRPNAQPRP | 0.24 |

| Sequence | shrunken log2 fold change |
| --- | --- |
| RRIRVRPPRLPRPRPRPNATPRP | 0.172 |
| RRIRVRPPRLPRPRPRPNCCPRP | -0.0903 |
| RRIRVRPPRLPRPRPRPNCQPRP | -0.1 |
| RRIRVRPPRLPRPRPRPNDDPRP | -0.299 |
| RRIRVRPPRLPRPRPRPNDIPRP | -0.235 |
| RRIRVRPPRLPRPRPRPNFVPRP | -0.491 |
| RRIRVRPPRLPRPRPRPNGNPRP | -0.323 |
| RRIRVRPPRLPRPRPRPNHFPRP | -0.346 |
| RRIRVRPPRLPRPRPRPNHHPRP | -0.373 |
| RRIRVRPPRLPRPRPRPNHNPRP | -0.638 |
| RRIRVRPPRLPRPRPRPNIKPRP | -0.497 |
| RRIRVRPPRLPRPRPRPNINPRP | -0.608 |
| RRIRVRPPRLPRPRPRPNKAPRP | 0.13 |
| RRIRVRPPRLPRPRPRPNKHPRP | -0.189 |
| RRIRVRPPRLPRPRPRPNKKPRP | -0.0801 |
| RRIRVRPPRLPRPRPRPNLKPRP | -0.0252 |
| RRIRVRPPRLPRPRPRPNLNPRP | -0.342 |
| RRIRVRPPRLPRPRPRPNPHPRP | -0.185 |
| RRIRVRPPRLPRPRPRPNPRPRP | 0.21 |
| RRIRVRPPRLPRPRPRPNRVPRP | 0.0523 |
| RRIRVRPPRLPRPRPRPNSNPRP | -0.74 |
| RRIRVRPPRLPRPRPRPNVGPRP | 0.00661 |

| Sequence | shrunken log2 fold change |
| --- | --- |
| RRIRVRPPRLPRPRPRPNVYPRP | -0.787 |
| RRIRVRPPRLPRPRPRPNWLPRP | -0.105 |
| RRIRVRPPRLPRPRPRPNYDPRP | 0.273 |
| RRIRVRPPRLPRPRPRPPACPRP | 0.692 |
| RRIRVRPPRLPRPRPRPPAGPRP | 0.522 |
| RRIRVRPPRLPRPRPRPPAKPRP | 0.603 |
| RRIRVRPPRLPRPRPRPPAWPRP | 0.498 |
| RRIRVRPPRLPRPRPRPPAYPRP | 0.0576 |
| RRIRVRPPRLPRPRPRPPCHPRP | -0.451 |
| RRIRVRPPRLPRPRPRPPERPRP | 0.257 |
| RRIRVRPPRLPRPRPRPPFFPRP | 0.193 |
| RRIRVRPPRLPRPRPRPPGCPRP | 0.232 |
| RRIRVRPPRLPRPRPRPPGLPRP | 0.373 |
| RRIRVRPPRLPRPRPRPPGMPRP | 0.172 |
| RRIRVRPPRLPRPRPRPPINPRP | 0.0484 |
| RRIRVRPPRLPRPRPRPPKMPRP | -0.0776 |
| RRIRVRPPRLPRPRPRPPKNPRP | 0.192 |
| RRIRVRPPRLPRPRPRPPLEPRP | 0.431 |
| RRIRVRPPRLPRPRPRPPMFPRP | -0.161 |
| RRIRVRPPRLPRPRPRPPMNPRP | -0.205 |
| RRIRVRPPRLPRPRPRPPMTPRP | 0.209 |
